Experimental data taken from patent publication US6653533 (PURDUE RESEARCH FOUNDATION, dated 1997).

Molecular target: T1, Pti6 (Solanum lycopersicum (Tomato) …, UniProt O04682 1-248, limits assumed)
T1 construct: Tested as a yeast two-hybrid prey expressed from vector pJG4-5; also called prey of Pti6 (in pJG4-5)
Test: yeast two-hybrid (LEU2 and lacZ reporters), Bicoid bait in pEG202, prey in pJG4-5
Protocol: Figure 2: FIG. 2 sets forth results of the Experiment described in Example 1 herein. Briefly, EGY48 yeast cells containing a prey of Pti4, Pti5 or Pti6 (in pJG4–5), and a bait of Pto, pto or Bicoid (in pEG202) were grown on galactose Ura⁻His⁻Trp⁻X-Gal medium. The plates were incubated at 30° C. for three days and photographed. Four independent, representative colonies are shown for each bait/prey combination.
Yeast strains carrying the Pto bait and a prey of Pti4, Pti5 or Pti6 grew in the absence of leucine, indicative of the LEU2 reporter gene activation. When grown on X-Gal plates, these yeast cells were blue as a result of the lacZ reporter gene activation. As determined by the intensity of blue color, the strength of interaction of Pto with these three preys is in the order of Pti6>Pti4>Pti5.

T1 sequence (O04682 whole entry): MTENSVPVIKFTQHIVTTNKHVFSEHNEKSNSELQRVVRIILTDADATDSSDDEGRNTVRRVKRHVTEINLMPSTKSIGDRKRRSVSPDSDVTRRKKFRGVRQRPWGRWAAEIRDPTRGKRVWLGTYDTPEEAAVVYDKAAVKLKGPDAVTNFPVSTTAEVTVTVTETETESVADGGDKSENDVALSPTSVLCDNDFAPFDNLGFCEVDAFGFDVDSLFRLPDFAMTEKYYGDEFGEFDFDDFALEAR

B1: Bicoid (other, UniProt P09081 2-160, looked up)
chain: AQPPPDQNFYHHPLPHTHTHPHPHSHPHPHSHPHPHHQHPQLQLPPQFRNPFDLLFDERTGAINYNYIRPYLPNQMPKPDVFPSEELPDSLVMRRPRRTRTTFTSSQIAELEQHFLQGRYLTAPRLADLSAKLALGTAQVKIWFKNRRRRHKIQSDQHK
notes: Control bait expressed from vector pEG202; also called arbitrary bait Bicoid (in pEG202)
- binding result: no binding
